Measured values reported in publication PMC11352979, “The mycobacterium lipid transporter MmpL3 is dimeric in detergent solution, SMALPs and reconstituted nanodiscs†” (RSC Chemical Biology, 2024).

Key:
[1] = target: T1, C-terminally truncated Mycobacterium smegmatis MmpL3 (ΔC Ms-MmpL3, aa 1–773) (M. smegmatis), A0QP27; experiment: AUC; sedimentation velocity of the SEC peaks of protein in SMALPs; 0.1-0.5 mg/mL, 20 mM Tris HCl, 150 mM NaCl, pH 8.0, 20 °C; c(s) distribution; the mass includes lipid and polymer; conditions: remark: other sources report otherwise
T1 chain: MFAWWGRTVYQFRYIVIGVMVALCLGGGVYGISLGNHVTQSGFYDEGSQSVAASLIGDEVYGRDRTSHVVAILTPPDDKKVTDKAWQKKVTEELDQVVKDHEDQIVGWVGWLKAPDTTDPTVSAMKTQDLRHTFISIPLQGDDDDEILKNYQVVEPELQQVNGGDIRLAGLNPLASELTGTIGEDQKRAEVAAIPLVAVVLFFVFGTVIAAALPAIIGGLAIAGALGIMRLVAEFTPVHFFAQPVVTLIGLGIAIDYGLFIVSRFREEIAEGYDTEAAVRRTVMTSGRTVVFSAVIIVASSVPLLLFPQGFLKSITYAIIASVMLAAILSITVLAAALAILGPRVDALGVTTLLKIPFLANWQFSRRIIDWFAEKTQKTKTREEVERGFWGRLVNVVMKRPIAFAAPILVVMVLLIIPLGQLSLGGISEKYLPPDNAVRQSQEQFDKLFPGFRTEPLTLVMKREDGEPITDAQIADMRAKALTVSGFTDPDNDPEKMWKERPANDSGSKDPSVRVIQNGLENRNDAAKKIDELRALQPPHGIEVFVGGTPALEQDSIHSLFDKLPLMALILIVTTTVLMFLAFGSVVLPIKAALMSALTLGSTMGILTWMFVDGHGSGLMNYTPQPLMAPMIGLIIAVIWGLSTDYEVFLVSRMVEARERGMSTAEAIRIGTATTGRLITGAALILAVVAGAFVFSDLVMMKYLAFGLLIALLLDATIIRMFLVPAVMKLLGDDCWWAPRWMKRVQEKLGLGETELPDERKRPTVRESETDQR

[2] = target: T1, C-terminally truncated Mycobacterium …; experiment: native MS; LILBID-MS of the high sucrose percentage (HSP, 16-18% sucrose) fraction of POPC/MSP1E3D1 nanodiscs; 20 mM Tris HCl pH 8.0; negative mode; low and high laser energies; conditions: remark: other sources report otherwise

stoichiometry N [1]: 2 | stoichiometry N [2]: 2
B1: C-terminally truncated Mycobacterium smegmatis MmpL3 (ΔC Ms-MmpL3, aa 1–773), A0QP27 1-773 (domain or fragment)
chain: MFAWWGRTVYQFRYIVIGVMVALCLGGGVYGISLGNHVTQSGFYDEGSQSVAASLIGDEVYGRDRTSHVVAILTPPDDKKVTDKAWQKKVTEELDQVVKDHEDQIVGWVGWLKAPDTTDPTVSAMKTQDLRHTFISIPLQGDDDDEILKNYQVVEPELQQVNGGDIRLAGLNPLASELTGTIGEDQKRAEVAAIPLVAVVLFFVFGTVIAAALPAIIGGLAIAGALGIMRLVAEFTPVHFFAQPVVTLIGLGIAIDYGLFIVSRFREEIAEGYDTEAAVRRTVMTSGRTVVFSAVIIVASSVPLLLFPQGFLKSITYAIIASVMLAAILSITVLAAALAILGPRVDALGVTTLLKIPFLANWQFSRRIIDWFAEKTQKTKTREEVERGFWGRLVNVVMKRPIAFAAPILVVMVLLIIPLGQLSLGGISEKYLPPDNAVRQSQEQFDKLFPGFRTEPLTLVMKREDGEPITDAQIADMRAKALTVSGFTDPDNDPEKMWKERPANDSGSKDPSVRVIQNGLENRNDAAKKIDELRALQPPHGIEVFVGGTPALEQDSIHSLFDKLPLMALILIVTTTVLMFLAFGSVVLPIKAALMSALTLGSTMGILTWMFVDGHGSGLMNYTPQPLMAPMIGLIIAVIWGLSTDYEVFLVSRMVEARERGMSTAEAIRIGTATTGRLITGAALILAVVAGAFVFSDLVMMKYLAFGLLIALLLDATIIRMFLVPAVMKLLGDDCWWAPRWMKRVQEKLGLGETELPDERKRPTVRESETDQR
